# Patent US12559560B2, “Antibody-based compositions for targeting tropomyosin receptor kinase B (TrkB) isoforms” (Fred Hutchinson Cancer Center, priority 2020, dated 2026)
# Experiments:
# Format in all cases: binding
# [1] = biological target: T1, full length TrkB.T1 protein (Mus musculus, UniProt P15209); test: Wes capillary Western blot of mouse brain detergent extracts (antibody screening Stage 2); conditions: normal and KO mouse brain detergent extracts; monoclonal culture super diluted 1:2
# T1 construct: mouse brain lysates from TrkB.T1^+/+ and TrkB.T1^−/− mice were prepared by mechanical disruption; from tissue; host or cells: mouse brain (TrkB.T1+/+ wild type; TrkB.T1-/- as negative control)
# Method: Wes™ capillary electrophoresis for antibody development. Protein Simple Wes™ was used at two stages of antibody screening: Stage 1, selecting immunized mice to advance for hybridoma generation, and Stage 2, for validation of monoclonal antibodies that Western blot full-length TrkB.T1 protein in murine brain detergent extracts. Briefly, mouse brain lysates from TrkB.T1^+/+ and TrkB.T1^−/− mice were prepared by mechanical disruption (Dounce tissue homogenizer, Kimble Chase) in RIPA lysis buffer (Pierce™ RIPA Lysis and Extraction Buffer, ThermoScientific™) containing HALT™ Protease and Phosphatase Inhibitor Cocktail and EDTA (ThermoScientific™) and normalized to 2 μg/μl total protein via Bradford Protein Assay. Approximately 8-10 ng total brain extract protein was loaded into the Protein Simple Capillary WES system for Western analysis following Protein Simple recommended methods (Rustandi, R. R., et al. Applications of an automated and quantitative CE-based size and charge western blot for therapeutic proteins and vaccines. Methods Mol. Biol. 1466, 197-217 (2016)). Mice with antisera (1:2500 dilution in PBS and Antibody Diluent (Protein Simple)) that identified a positive band at 90-100 kDa for the TrkB.T1 protein were advanced forward for final boosting, splenectomy, and hybridoma generation (FIG. 3B). […]
# TrkB.T1 [2] = biological target: T2, TrkB.T1 (Mus musculus, UniProt P15209); test: TrkB.T1 immunohistochemistry on mouse brain / mouse tumors
# T2 construct: from tissue; host or cells: formalin-fixed paraffin-embedded mouse brain and RCAS/tv-a mouse gliomas
# Method: (§1) Antibody validation phase—large batch IHC. Four-μm sections of a multi-tissue block containing human brain, mouse brain, TrkB.T1^−/− mouse brain, a cell pellet over-expressing TrkB.T1 and a cell pellet without TrkB.T1 were cut and stained with the Leica Bond Rx (Leica Biosystems, Buffalo Grove, IL). Slides were pretreated with H2 antigen retrieval buffer for 20 min. Endogenous peroxidase was blocked with 3% hydrogen peroxide for 5 min. A TCT protein block was applied for 10 min (0.05 M Tris, 0.15 M NaCl, 0.25% Casein, 0.1% Tween 20, pH 7.6). Supernatants from multiple boosting and pre-/post-fusion samples, along with antibody clone D12 were used at 1:20 and applied to the tissue for 30 min. The antibody was then detected using Leica Power Vision HRP Mouse specific polymer (Leica Biosystems catalog #PV6114) for 12 min and staining was visualized with Refine DAB (Leica Biosystems catalog #D59800) and a hematoxylin counterstain was used (Hematoxylin 50% in H2O from Biocare catalog #NM-HEM-M). Mouse isotype control slides were included for each run (Jackson ImmunoResearch Laboratories) at 2 μg/ml. Digital images of IHC-stained slides were obtained at ×40 magnification (0.25 μm/pixel) using a whole slide scanner (ScanScope AT Turbo, Aperio) fitted with a 20×/0.75 Plan Apo objective lens and ×2 magnification changer (Olympus, Center Valley, Pa., USA). […]
# TrkB.T1 [3] = biological target: T3, TrkB.T1 (Homo sapiens, UniProt Q16620); test: TrkB.T1 immunohistochemistry on human brain
# T3 construct: To determine endogenous localization of TrkB.T1 in human brain, a monoclonal antibody; from tissue; host or cells: normal human brain (rapid autopsy, FFPE sections)
# Method: as §1
# T2 sequence (P15209 32-476 isoform P15209-2 limits assumed): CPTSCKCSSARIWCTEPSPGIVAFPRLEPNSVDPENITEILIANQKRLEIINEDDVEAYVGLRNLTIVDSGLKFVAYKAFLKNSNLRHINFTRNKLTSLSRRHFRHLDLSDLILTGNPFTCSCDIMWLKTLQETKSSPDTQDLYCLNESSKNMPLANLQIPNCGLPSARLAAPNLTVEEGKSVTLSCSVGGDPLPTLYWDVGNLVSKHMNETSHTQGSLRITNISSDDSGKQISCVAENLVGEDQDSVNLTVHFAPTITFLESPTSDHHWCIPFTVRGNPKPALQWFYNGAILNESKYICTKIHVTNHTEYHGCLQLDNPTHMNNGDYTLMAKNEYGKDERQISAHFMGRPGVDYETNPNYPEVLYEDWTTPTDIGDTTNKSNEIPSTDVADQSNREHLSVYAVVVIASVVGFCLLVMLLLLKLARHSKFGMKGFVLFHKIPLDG
# T3 sequence (Q16620 32-477 isoform Q16620-2 limits assumed): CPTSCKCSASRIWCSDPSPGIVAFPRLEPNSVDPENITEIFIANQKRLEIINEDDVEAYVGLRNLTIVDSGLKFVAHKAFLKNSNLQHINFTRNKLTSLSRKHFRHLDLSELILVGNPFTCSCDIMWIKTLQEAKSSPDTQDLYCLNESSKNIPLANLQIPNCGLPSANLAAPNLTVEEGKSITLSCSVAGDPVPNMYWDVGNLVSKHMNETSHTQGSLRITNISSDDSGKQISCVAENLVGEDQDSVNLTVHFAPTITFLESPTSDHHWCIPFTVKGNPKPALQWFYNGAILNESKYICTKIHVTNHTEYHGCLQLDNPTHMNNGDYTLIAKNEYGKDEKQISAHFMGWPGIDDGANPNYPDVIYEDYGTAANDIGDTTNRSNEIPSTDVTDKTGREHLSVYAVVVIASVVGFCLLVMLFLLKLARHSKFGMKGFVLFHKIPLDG
# T1 sequence (P15209 32-476 isoform P15209-2 limits assumed): as the sequence (P15209 32-476 isoform P15209-2 limits assumed) above
molecule,measurement,setting,value
"Clone FH1D12: Murine monoclonal antibody to the TrkB.T1 C-terminal peptide … (SEQ ID NO:1), raised in TrkB.T1 null mice (antibody, V domains shown) VL: QTVVTQESALTTSPGETVTLTCRSSTGAVTTSNYANWVQEKPDHLFTGLIGGINNRAPGVPARFSGSLIGDKAVLTITGAQTEDEAIYFCALWYSNHWVFGGGTKLTVL VH: VQLQQSGPELARPWASVKISCQAFYTFSRGIHFDIRNTMYWIQWVKQRPGQGLEWIGAIYPGNGDPTYSQNFKDKATLTADKSSNTAYMQLSSLTSEDSAVYYCARYDYGGGFTYWGQGTLVTVSAGS",Western blotting activity (full length TrkB.T1 protein),[1],positive
same,staining in TrkB.T1-/- knockout mouse brain,TrkB.T1 [2]; TrkB.T1-/- knockout mouse brain (specificity control),absent
same,immunostaining in wild-type (WT) mouse brain,TrkB.T1 [2]; wild-type mouse brain,positive
same,immunostaining in human brain,TrkB.T1 [3],positive
